According to patent US20210355208:

Target: anti-EGFR activatable antibodies comprising substrates 2001, 2006-2010 and 2012

B1: human matriptase (protein)
chain: VVGGTDADEGEWPWQVSLHALGQGHICGASLISPNWLVSAAHCYIDDRGFRYSDPTQWTAFLGLHDQSQRSAPGVQERRLKRIISHPFFNDFTFDYDIALLELEKPAEYSSMVRPICLPDASHVFPAGKAIWVTGWGHTQYGGTGALILQKGEIRVINQTTCENLLPQQITPRMMCVGFLSGGVDSCQGDSGGPLSSVEADGRIFQAGVVSWGDGCAQRNKPGVYTRLPLFRDWIKENTGV
  kcat/Km: a range of kcat/Km values ranging from 6E+02 to 2E+04
